# In the RNAGym collection of RNA variant scans (doi:10.7554/elife.90254):
# B1: LINE1-full (parent)
# chain: UACGUAGGUGGUUUUCCCCUGAUAGUGCUAAGGGGGCCUGGAAGUUUGGACUGGGCAGAGCUCAACACAGCGUGGCAAAGUGGCUGUGGCUAGACUGCCUCUCUGGAUUCCUCGUCACUCAGCAGGGCAUCUCUGAGAGAAAUGCC
# Variants of: B1
# Assay: self-cleavage, relative activity (ratio to wild type); higher = more cleavage; in vitro, sequencing; the parent is a self-cleaving ribozyme
row,Variant,self-cleavage
1,A129G C146U,1.59
2,G122C U143C,1.57
3,C120U A136G,1.39
4,A121U U130C,1.7
5,C120A G122U,2.31
6,A129G A141C,2.06
7,A129G A140C,0.74
8,A129G A140U,1.8
9,C128U A141U,1.62
10,C123U G135C,1.97
11,A124U U132A,1.56
12,U134A A138G,1.63
13,U134A A138U,1.72
14,C120U,1.37
15,C120A,1.41
16,G127A U132C,0.78
17,A140G C145A,1.28
18,A140G C145U,0.62
19,A124G G135U,1.49
20,U130A A142G,1.48
21,U134A G135U,1.21
22,A121U G137A,2.09
23,G126A A140G,1.49
24,C133A,1.37

row,Variant,self-cleavage
1,C133U,1.16
2,A124U A138G,1.79
3,A124U A138U,1.37
4,A121U G126U,1.5
5,C123U A129G,1.37
6,C128U A129G,1.65
7,U119C G126U,1.67
8,G127A A136G,1.5
9,G127A A136U,1.65
10,A124G U143A,0.98
11,A124G U143C,0.62
12,U119G A129G,1.15
13,A121U A124G,1.31
14,A121U A124U,1.54
15,U134C A138U,1.65
16,A124C A136G,1.15
17,U130A A141U,1.13
18,U130A A141G,1.46
19,G137U U143C,1.04
20,U130C A136G,1.66
21,U132G A138G,1.35
22,A124G G144C,0.68
23,G122A A129G,1.19
24,A141G A142U,1.36

row,Variant,self-cleavage
1,A141G A142G,1.45
2,G127A A141G,0.99
3,G139A A141G,1.58
4,G122A G137U,1.23
5,G135A A138G,1.82
6,C123U A142G,1.32
7,U132C A142G,1.49
8,A140G A141G,0.53
9,C123U U132C,1.53
10,A138G A142G,1.39
11,A140U C145U,1.63
12,C131U A136G,1.39
13,U130G U143C,1.5
14,A129C U132C,0.96
15,G125A A138G,1.01
16,U134C G144A,1.18
17,C120U U134C,1.27
18,A136G A142C,1.08
19,A121U C146U,1.73
20,A140G A142C,1.4
21,A140G A142G,1.17
22,A124G A136C,1.19
23,A124G A136G,1.14
24,A129G U134G,1.65

row,Variant,self-cleavage
1,A129U A141G,1.34
2,U134A A141U,1.12
3,A141C A142C,0.71
4,A124G G125A,0.75
5,U134A U143A,0.77
6,U134A U143C,0.63
7,A124U C131A,0.96
8,U132G A141G,1.22
9,A121C A141G,1.99
10,A140G G144A,0.92
11,G127A,1.16
12,G127C,1.45
13,G127U,1.24
14,G125U A142G,1.33
15,C133A A140C,1.3
16,U130A A138G,1.31
17,U130A A138U,1.64
18,C120U U130A,1.58
19,G127U U143C,1.66
20,G127A A140U,1.26
21,U119G A140G,2.22
22,A124G A142G,0.72
23,C123U A141G,1.24
24,A124U U134A,1.31

row,Variant,self-cleavage
1,G122A A124G,0.62
2,U130C A141G,1.55
3,A138G U143A,1.45
4,C133U A142G,1.14
5,U132C C133A,1.14
6,U132C C133U,1.4
7,A129G,1.52
8,A129U,1.4
9,A129C,1.67
10,C133U A136G,0.49
11,A121G G135A,2.36
12,C120A A140G,1.32
13,A124U A136G,1.43
14,A121G C123U,1.07
15,U132C G144A,1.86
16,C133U A138C,1.74
17,U130C A140U,0.32
18,U130C A140G,1.49
19,U130C C133U,1.42
20,G127A C128U,1.13
21,A129U U132A,0.04
22,A129U U132C,1.3
23,A129G C131U,0.92
24,C133U A141G,1.4

row,Variant,self-cleavage
1,U130C C131U,1.28
2,A121U U143C,1.59
3,G137A A138G,1.38
4,A121U G125U,1.4
5,A129G G135A,1.63
6,A141U U143A,0.6
7,U132C A141U,0.63
8,U119G,1.63
9,C133A C145A,1.51
10,A129C U130C,1.02
11,U134C U143C,1.21
12,U134C U143A,1.37
13,A121U C133U,1.8
14,A140U A142G,1.73
15,A129U U130C,1.49
16,U132A G139A,1.33
17,A124U A142G,1.51
18,C133A A136U,1.38
19,A121C G127U,1.44
20,U132A A140G,1.41
21,U132C U143C,1.24
22,U132C U143A,1.35
23,A124G G139A,1.84
24,C120U A121G,0

row,Variant,self-cleavage
1,G125U G144U,1.72
2,G125U A136G,0.79
3,A138U U143C,1.23
4,A138U U143G,1.5
5,A138G C146U,1.32
6,A121U U132C,1.36
7,C120U A141U,0.95
8,G126U A140G,0.66
9,A129G A136U,2.26
10,A141G U143C,1.31
11,A121G G125U,1.8
12,A121C U143C,1.99
13,A124G A140U,0.94
14,U134A A142G,1.18
15,C131U A142G,1.61
16,C131G A142G,0.36
17,U130C C146U,1.52
18,A129G A138U,2.12
19,A124G A129U,1.06
20,A124G A129G,0.96
21,G139A,0.89
22,G139U,1.31
23,G139C,1.53
24,U119C U132G,2.83

row,Variant,self-cleavage
1,U119C U132C,2.32
2,U132A U134C,1.61
3,A124U A140U,1.09
4,A121G G139A,1.06
5,A121U G127A,0.76
6,A124U G127U,1.62
7,A136C U143A,1.51
8,U130A G137A,1.84
9,U132C A136U,1.46
10,U132C A136G,1.47
11,A140U,1.26
12,A140C,0.65
13,A140G,1.07
14,A141C U143A,1.79
15,A121U A136G,1.47
16,A121U A136U,1.07
17,G122C A140C,1.71
18,G135A A136G,1.61
19,A124C U134C,2.04
20,A138U A140G,1.2
21,C120U G126A,2.01
22,A140C A141G,0.41
23,C131U U143G,0.59
24,A129U C133A,1.26

row,Variant,self-cleavage
1,U132A A141U,0.14
2,A124G A141G,1.39
3,A124C G137U,0.75
4,G125A U143C,0.64
5,U132A G137A,1.7
6,U130C U134A,1
7,G127U A140G,1.27
8,A121U A129G,1.77
9,U130C G135U,0.97
10,A142G U143G,0.16
11,A136G A140G,1.51
12,A136G A140U,1.29
13,A129U A142U,2.13
14,G127C U132C,1.99
15,C123A A129U,1.31
16,G125A A140U,0.61
17,C120U U132C,1.56
18,U119C U134C,2.11
19,U119C U134G,1.58
20,U134C A140U,1.02
21,U119G C146U,1.86
22,G125A U130C,1.69
23,G125A U130A,1.61
24,A141G C146U,1.31

row,Variant,self-cleavage
1,A129C G135A,2.11
2,A121G U143C,1.69
3,A124G U130C,1.58
4,C123U A124G,1.25
5,G122U A136U,1.31
6,C120A A121G,1.39
7,C120A A121U,0.93
8,U132C G135A,1.19
9,A136U A138U,0.99
10,G127A A138U,1.5
11,G125A C146U,1.36
12,A141U A142G,1.79
13,A138U A142C,2.14
14,C133U A140G,1.05
15,U130A C145U,1.79
16,A121G A140U,1.45
17,A121G A140C,1.93
18,U119G A136G,0.94
19,A138G A141U,1.43
20,A138G A141G,1.25
21,G135A A140G,1.18
22,C131A G135A,1.55
23,G122A A136G,1.54
24,A124U U143C,1.26

row,Variant,self-cleavage
1,A124U U143A,1.75
2,A142G,1.21
3,A142C,0.53
4,A142U,1.22
5,U119C C123A,1.36
6,U119C C123U,0.62
7,A124U A141U,1.27
8,U130A U143C,1.25
9,A121U A140C,1.09
10,A121U A140G,1.18
11,A140G U143A,0.79
12,A124U U130A,1.7
13,A124U U130C,1.66
14,A121U G144A,1.86
15,U134C A136G,1.75
16,U134C A136U,1.26
17,A124C A138G,1.39
18,A142G C145U,1.11
19,U132C U134A,0.73
20,U132C U134C,1.35
21,U130C G139A,1.5
22,A136G U143C,1.47
23,U134A C146U,0.6
24,G135U A140U,1.13

row,Variant,self-cleavage
1,U119C G122U,2.35
2,U119C G122C,2
3,A121C A138G,2.34
4,A124G C146A,0.84
5,U132A G144A,1.82
6,U130A U132C,1.41
7,G125U U143C,1.08
8,A121G A136U,1.97
9,G139U A140G,1.23
10,G125U A138G,2.25
11,C123A A138G,1.82
12,A129G U132A,1.54
13,G127A U130C,1.31
14,A121G A141U,1.77
15,C120U A140G,1.1
16,U119C G139U,1.47
17,A129U U134C,1.22
18,A129U U134G,1.53
19,A129U U134A,1.37
20,A124C U143C,2.43
21,A124C U143A,1.24
22,A124C A141G,1.71
23,A129G A142G,1.67
24,C120U A129C,0.82

row,Variant,self-cleavage
1,U130C A142G,1.37
2,U130C A142U,1.6
3,G122C,1.5
4,G122A,1.13
5,G122U,1.3
6,C128U U132C,1.37
7,A129C U134C,1.54
8,A129C U134A,1.59
9,C128U A136U,1.67
10,A124U A129G,1.72
11,U130C A138U,1.36
12,U130C A138G,1.75
13,U134C A142G,1.42
14,A129G C145U,0.99
15,A129G C145G,1.65
16,G125A A129G,1.38
17,G125A A129U,0.46
18,A124G A138U,1.23
19,C128A U130C,1.11
20,U130A U134C,1.84
21,U130A U134A,1.33
22,C131U A138G,1.36
23,G127A C145A,1.32
24,A121G A124U,1.62

row,Variant,self-cleavage
1,A121G A124C,0.32
2,G125U U134C,1.2
3,A124C U132C,1.11
4,U119C U143A,1.94
5,G126C A129G,2.02
6,G122U A142G,1.52
7,A129U U143A,1.59
8,A129U U143C,1.64
9,A121G U134A,1.32
10,A136U A142G,1.52
11,A124C A140G,1.88
12,A121G U132A,1.86
13,U134G U143G,0.88
14,A136U,1.23
15,A136C,1.34
16,A136G,1.27
17,G135U U143C,1.63
18,G126A U130C,1.41
19,A121C A142G,1.1
20,C120A A129G,1.29
21,A129U A140U,0.88
22,G127U A138G,1.29
